Data published in paper PMC3902905.

How the values were obtained:
[1] = molecular target: Egg nucleoplasmin (eNP) from Xenopus laevis (X. laevis) (UniProt P05221); assay: co-sedimentation; 5–20% sucrose gradient in Buffer I (240 mM NaCl), NP 0.9 µM mixed with histones, 1 h 25°C, 29 000 rpm 22 h 4°C; fractions by A230 and SDS–PAGE
[2] = molecular target: Egg nucleoplasmin (eNP) from Xenopus laevis (X. laevis) (UniProt P05221); assay: native gel or EMSA; 2D electrophoresis (4–16% native PAGE, then 12.5% SDS–PAGE) of the high molecular mass complex and densitometry with known amounts of each protein as standards; Buffer I, 240 mM NaCl
[3] = molecular target: Egg nucleoplasmin (eNP) from Xenopus laevis (X. laevis) (UniProt P05221); assay: AUC; sedimentation equilibrium, Buffer I (0.24 M NaCl), NP 0.3 µM, 4°C, 8000 and 12 000 rpm, fit to a single ideal species

UniProt P05221, sequence (P05221 whole entry): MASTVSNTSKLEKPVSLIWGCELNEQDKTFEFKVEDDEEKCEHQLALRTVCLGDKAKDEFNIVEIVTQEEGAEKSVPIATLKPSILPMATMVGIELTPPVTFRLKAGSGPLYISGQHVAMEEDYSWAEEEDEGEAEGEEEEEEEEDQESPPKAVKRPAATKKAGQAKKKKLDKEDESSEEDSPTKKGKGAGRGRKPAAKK

| Substance | stoichiometry N (octamer per NP pentamer) [1] | stoichiometry N (octamer per NP pentamer) [2] | stoichiometry N (eNP pentamers per histone octamer) [3] | stoichiometry N (H3-H4 dimers per NP pentamer) [2] |
| --- | --- | --- | --- | --- |
| Natural source histone octamer from chicken erythrocyte chromatin (from UniProt P70081 1-103) (complex) | 0.5 | 0.54 | 2 | – |
| Natural source histones H3-H4 from chicken erythrocyte chromatin (from UniProt P84229 1-136; P70081 1-103) (complex) | – | – | – | 2.1 |
